Substrate in series [1]: COC(=O)/C=C/c1ccc(O)c(O)c1
Put plainly: 动力学参数值测定 (kinetic parameters, double-reciprocal method), wild-type LcCOMT. In kind it is biochemical, Ligusticum chuanxiong. To be noted: other: substrate 咖啡酸甲酯 0.0715-0.25 mM, S-adenosylmethionine 1 mM, pH 7.0, 37℃, HPLC, double-reciprocal plot, 37.0 °C.

Substrate in series [2]: COC(=O)/C=C/c1ccc(O)c(O)c1
Put plainly: 动力学参数值测定 (kinetic parameters, double-reciprocal method), LcCOMT-I318T mutant. The class given is biochemical, Ligusticum chuanxiong. To be noted: other: substrate 咖啡酸甲酯 0.0715-0.25 mM, S-adenosylmethionine 1 mM, pH 7.0, 37℃, HPLC, double-reciprocal plot, 37.0 °C.

As a reminder, the Km is the substrate concentration at which the rate is half of its maximum.

B1: Ligusticum chuanxiong caffeic acid O-methyltransferase LcCOMT, wild type [野生型LcCOMT; 川芎咖啡酸-O-甲基转移酶] (Conioselinum anthriscoides) (protein)
chain: MNTELIPPTFLEDEEEEACMFAMQLSSASVLPMVLKSAIELNLLESIAKAGPGVYVSPSHLAAGLPSSQPDTPVMLDRILRLLASYSVLNCQLRDLPQGRVERLYGLAPVCKFLTKNSDGVSMAPLLLMNQDKILMESWYHLKDAVLDGGIPFNKAYGMTAFEYHGKDPRFNKVFNQGMSNHSTITMKKILQTYDGFGGLKTVVDVGGGTGATLNMIISKYPNLKGINFDLPHVVEDAPSYPGVEHVGGDMFVSVPKGDAIFMKWICHDWSDAHCLTFLKNCYKALPKDGKVILAECILPEAPDSKLTTKNVIHIDVIMLAHNPGGKERTEKDFEALGKEAGFKSFNKACCAYNTWVIEYYK
As to B1, in series [1], the Km was found to be 26.4 µM, the Vmax is listed as 2.643*10^-8 M/S and the kcat was 0.113 S-1.

B2: Ligusticum chuanxiong caffeic acid O-methyltransferase LcCOMT variant LcCOMT-I318T (Ile318 to Thr), SEQ ID No.2 [LcCOMT-I318T突变体; 川芎咖啡酸-O-甲基转移酶] (Conioselinum … (protein)
chain: MNTELIPPTFLEDEEEEACMFAMQLSSASVLPMVLKSAIELNLLESIAKAGPGVYVSPSHLAAGLPSSQPDTPVMLDRILRLLASYSVLNCQLRDLPQGRVERLYGLAPVCKFLTKNSDGVSMAPLLLMNQDKILMESWYHLKDAVLDGGIPFNKAYGMTAFEYHGKDPRFNKVFNQGMSNHSTITMKKILQTYDGFGGLKTVVDVGGGTGATLNMIISKYPNLKGINFDLPHVVEDAPSYPGVEHVGGDMFVSVPKGDAIFMKWICHDWSDAHCLTFLKNCYKALPKDGKVILAECILPEAPDSKLTTKNVIHIDVTMLAHNPGGKERTEKDFEALGKEAGFKSFNKACCAYNTWVIEYYK
Take B2: the Michaelis-Menten constant (Km) in series [2] was 19.7 µM.

For the origin of these results see patent CN110760489A, “一种川芎咖啡酸-o-甲基转移酶的突变体及其用途” (Southwest Jiaotong University, priority 2019, dated 2020).
